Biological target: T1, 6his-GSU1771 (Geobacter sulfurreducens (DL1 wild-type background)) (UniProt Q74CA3)
T1 sequence: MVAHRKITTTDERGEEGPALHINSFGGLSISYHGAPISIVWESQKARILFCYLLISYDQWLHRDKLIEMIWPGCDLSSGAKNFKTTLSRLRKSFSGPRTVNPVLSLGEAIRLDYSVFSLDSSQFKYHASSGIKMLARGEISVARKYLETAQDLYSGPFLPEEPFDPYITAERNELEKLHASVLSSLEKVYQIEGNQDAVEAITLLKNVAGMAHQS
Test: EMSA
Settings: 40 mM HEPES, 8 mM MgCl2, 50 mM KCl, 1 mM DTT, 0.05% NP-40, 0.1 mg/ml BSA, 20 ul, 30 C 30 min, pH not stated; 100 ng of each fragment; 6% native PAGE in 0.5X …

Row | Sequence | binding
1 | ACCATCTTCGCATCCCTGTGGAGGATCTCTGCTTTTCCTGCCACGACCGATAGCAGTGACTATTGTGTTGTGGTGGGTGTGTTGTGATGGTGTTGCGGTCATGTTTCTGCTTGTTTTTATTTTTAATTTTACCCATTTTGTGCTAAGAAAATCTAATGGCCCTATACCACTGTAAGCTCGGCTCCTCGGAG (double strand) [pulF promoter] | binds
2 | AGGCTTGCTCGTCTCATGTCGCGCCGCCGTGGGAAAAAGTAGTAACCAGTAGTATATCATTTCGTCACCGTGGTTTCATTGCTTGAGCTTTTTTGCATCCGAAGCGACTCCAGCCTGTGCCCTCCGGCAATAAACCGCTTTTCCCCCGCCGGTGATGGTGGTACTCTCCTCCCATTTCGCGGAGGATGGAGTGCATGGAT (double strand) [gsu3356 promoter] | binds
3 | CGCTGGATCTCCTGAAAGGGTGGGAAATCCTGAAAACAATAAGCAAATGAGAGGATGACTTACGCCAAAAGGGGGGGCTCGGGCCCCCCCTTTTTTTATGTAAATCCGATAAGTTCTATATTTGTATTGACACTCCCGTAACGATGTAGTATTCAGTAGGTAAATTAATCACAGTTAAGGTAAGGGTGTATCGCG (double strand) [gsu1771 promoter] | binds
4 | GTGGTATTCATGCACGTATTCTAATGACGGCCCGCAACCCAGGTGGAGCCGTCATCCTTTTTTTCGGATATACTGCCTGGATTCACGACTGAACCGGGACGGAAGGCAATAGCCGCACCGACGAGGATAGGATGAGCTTTCCCTTC (double strand) [gsu1704-gsu1705 intergenic region] | no binding

Source: article PMC10599522
